Data reported in patent US20110274692A1 (published 2011).

B1: Ab053 (antibody, V domains shown)
VH: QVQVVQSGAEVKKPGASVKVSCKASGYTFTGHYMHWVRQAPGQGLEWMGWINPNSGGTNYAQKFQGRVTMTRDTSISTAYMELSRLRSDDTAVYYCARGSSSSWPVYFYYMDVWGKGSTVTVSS
VL: QSALTQPRSVSESPGKTVTISCTGSGGSIGSNYVQWYQQRPGSAPTTVIFEDNRRPSGVPDRFSGSIHSSSNSASLTISGLKTEDEADYYCQSYVGTIVVFGGGTKVTVL
B2: Ab062 (antibody, V domains shown)
VH: QVQLQQWGAGLLKPSETLSLTCAVYGGSFSGYYWSWIRQPPGKGLEWIGEINHSGSTNYNPSLKSRVTISVDTSKNQFSLKLSSVTAADTAVYYCARGPSGWYIREFDYWGQGTLVTVSS
VL: QSVLTQPPSVSGAPGQRVTISCTGSSSNIGAGYDVHWYQQLPGTAPKLLIYGNSNRPSGVPDRFSGSKSGTSASLAITGLQAEDEADYYCQSYDSSLSGSGVFGGGTKVTVL
B3: Ab080 (antibody, V domains shown)
VH: EVQLVESGGGVVQPGGSLRLSCAASGFTFDDYAMHWVRQAPGKGLEWVSLISWDGGSTYYADSVKGRFTISRDNSKNSLYLQMNSLRAEDTALYYCAKARGVVIIDYWGQGTLVTVSS
VL: EIVLTQSPGTLSLSPGERATLSCRASQSLSSSFLAWYQQKPGQAPRLLIYGAGSRATGVPDRFSGSGYGTDFSLTISRLELEDFAVYYCQQYDRSQITFGQGTRLEIK
B4: Ab001 (antibody, V domains shown)
VH: EVQLLESGGGLVQPGGSLRLSCAASGFTFSSYEMNWVRQAPGKGLEWVSSISSSSSYIYYADSVKGRFTISRDNSKNTLYLQMNSLRAEDTAVYYCARVRWYKDSDAFDIWGQGTLVTVSS
VL: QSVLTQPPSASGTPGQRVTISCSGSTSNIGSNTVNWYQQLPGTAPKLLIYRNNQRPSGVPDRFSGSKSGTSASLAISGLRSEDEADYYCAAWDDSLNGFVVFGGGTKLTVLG
B5: Ab037 (antibody, V domains shown)
VH: EVQLLESGGGLVQPGGSLRLSCAASGFTFSSYEMNWVRQAPGKGLEWVSSISSSSRYADVANSVVGRFTISRDNSKNTLYLQMNSLRAEDTAVYYCARGEWLDHFDYWGQGTLVTVSS
VL: QSVLTQPPSASGTPGQRVTISCSGSSSNIGNSAVNWYQQLPGTAPKLLIYDNNKRPSGVPDRFSGSKSGTSASLAISGLRSEDEADYYCQVWDSGTAVFGGGTKLTVLG
B6: Ab079 (antibody, V domains shown)
VH: QMQLVQSGAEMKKPGASVKVSCKASGYSFSDYGITWVRQAPGQGPEWMGWISGYNGNTNYAQKFQDRVTMTTDTSTSTAYMELRSLKSDDTAVYFCARARGVWMFDNWGQGTLVTVSS
VL: AIRMTQSPSTLSASVGDRVTITCRASQSISTWLAWYQQKPGKAPKLLIYTTSTLESGVPSRFSGSRSGTEFTLTISSLQPDDFATYYCQQYNSYPLTFGGGTKVEIK
B7: Ab083 (antibody, V domains shown)
VH: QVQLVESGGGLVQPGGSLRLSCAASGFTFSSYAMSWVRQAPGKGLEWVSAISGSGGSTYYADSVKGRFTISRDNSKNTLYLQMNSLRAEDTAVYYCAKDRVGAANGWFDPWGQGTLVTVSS
VL: AIQLTQSPSSLSASVGDRVTISCRASQSITSYLNWYQQKPGKAPNLLIYAASSLQSGVPSRFSGSGSGTDFTLTIAGLQPEDFATYYCQQFDSYPFTFGGGTKLEIK

target: T1, INS/INSR complex (human, UniProt P06213 28-1382; P01308 25-110, limits assumed); test: ratio of the value for R to the value for R-L, Table 2
T1 construct: cells carrying INSR pre-exposed to human insulin (150 nM for CHO-K1 hINSR cells); also called R-L; INSR with insulin

Row | Binder | KD ratios (R against R-L)
1 | B1 | 1.5
2 | B2 | 1.1
3 | B3 | 17.6
4 | B4 | 103
5 | B5 | 1.4
6 | B6 | 19.4
7 | B7 | 20.2
